The text below walks through data of US20240392040A1 (AKESO HUIKE SHANGHAI, published 2024).

The target in assay [1] is T1, PD-1 on 293T-PD1 membrane surface (full-length human PD-1 on cells) (human, UniProt Q15116 25-288).
T1 construct: whole, on cells; the Promega PD-1 effector cells are bought; also called CHO-K1-PD1 cells
Kind of assay: flow cytometry on 293T-PD1 cells. The protocol: 100 μL of 1% PBSA was then added to each well, and the mixture was centrifuged at 350×g for 5 min, followed by removal of the supernatant. […] The mixture was mixed gently and uniformly, and then incubated on ice for 1 h. 100 μL of 1% PBSA was added to each well, and the mixture was centrifuged at 350×g for 5 min, followed by removal of the supernatant. Then the plate was washed twice with 200 μL of 1% PBSA. […] The mixture was mixed well and then incubated on ice in the dark for 0.5 h. 100 μL of 1% PBSA was added to each well, and the mixture was centrifuged at 350×g for 5 min, followed by removal of the supernatant. Then the plate was washed twice with 200 μL of 1% PBSA. 400 μL of 1% PBSA was added to each well to resuspend the cell pellets, and the mixture was transferred to a flow cytometry tube for FACSCalibur assay.
Background: A flow cytometer gives signals particle by particle.

In assay [2] the target is T2, human PD-1-mFc (human, UniProt Q15116 25-170, limits assumed).
T2 construct: not shown: mouse IgG Fc (mFc)
Kind of assay: indirect ELISA, coated human PD-1-mFc. As to the method: Then the ELISA plate coated with the antigen was washed once with PBST and then blocked with a PBS solution containing 1% BSA as a blocking solution at 37° C. for 2 h. After blocking, the ELISA plate was washed 3 times with PBST. The ELISA plate containing the test antibodies was incubated at 37° C. for 30 min and then washed 3 times with PBST.
(§1) After incubation, the plate was washed 4 times with PBST, TMB (Neogen, 308177) was added for chromogenesis in the dark for 5 min, and then a stop solution was added to terminate the chromogenic reaction. The ELISA plate was put into an ELISA plate reader immediately, and the OD value of each well in the ELISA plate was read at 450 nm. The data were analyzed and processed by SoftMax Pro 6.2.1.

Assay [3] has as its target T1, PD-1 on 293T-PD1 membrane surface …. Put plainly: competitive flow cytometry on 293T-PD1 cells, competitor PDL-1-mFc 20 nM. As to the method:
1. […] 100 μL of 1% PBSA was then added to each well, and the mixture was centrifuged and washed. […] 100 μL of a 400-fold diluted FITC goat anti-mouse IgG/IgM antibody (BD, Cat. No. 555988) was added, while 100 μL of 1% PBSA was added for a blank sample. The mixture was mixed well, incubated on ice in the dark for 30 min, washed, and centrifuged. The cells were resuspended and then transferred to a sample loading tube for testing on a flow cytometer.

For assay [4], the target named is T3, human PD-1-mFc-Biotin (human, UniProt Q15116 25-170, limits assumed, biotin label (site not stated)).
T3 construct: not shown: mouse IgG Fc (mFc)
Put plainly: competitive ELISA, blocking of PD-1-mFc-Biotin binding to coated human PDL1-mFc. As to the method: After incubation, the ELISA plate was blocked with a PBS solution containing 1% BSA at 37° C. for 2 h. After blocking, the plate was washed three times and dried. The antibody was serially diluted on a dilution plate in a 3-fold dilution ratio to achieve 7 concentrations with 80 nM as the starting concentration (at a final concentration of 40 nM), and a blank control was set. […] Then the mixture was incubated at room temperature for 10 min. Then the mixture after reaction was added to the coated ELISA plate, and the ELISA plate was incubated at 37° C. for 30 min. After incubation, the plate was washed three times with PBST and dried. An SA-HRP (KPL, 14-30-00) working solution was added, and the plate was incubated at 37° C. for 30 min. After incubation, the plate was washed four times and dried. Then TMB (Neogen, 308177) was added in the dark for chromogenesis for 5 min, and then a stop solution was added to terminate the chromogenic reaction. The ELISA plate was put into an ELISA plate reader immediately, and the OD value of each well in the ELISA plate was read at 450 nm. The data were analyzed and processed by SoftMax Pro 6.2.1.
A general note: ELISA stands for enzyme-linked immunosorbent assay.

Assay [5] has as its target T4, human LAG3-mFc (human, UniProt P18627 23-450, limits assumed).
T4 construct: not shown: mouse IgG Fc (mFc)
T4 sequence (looked up): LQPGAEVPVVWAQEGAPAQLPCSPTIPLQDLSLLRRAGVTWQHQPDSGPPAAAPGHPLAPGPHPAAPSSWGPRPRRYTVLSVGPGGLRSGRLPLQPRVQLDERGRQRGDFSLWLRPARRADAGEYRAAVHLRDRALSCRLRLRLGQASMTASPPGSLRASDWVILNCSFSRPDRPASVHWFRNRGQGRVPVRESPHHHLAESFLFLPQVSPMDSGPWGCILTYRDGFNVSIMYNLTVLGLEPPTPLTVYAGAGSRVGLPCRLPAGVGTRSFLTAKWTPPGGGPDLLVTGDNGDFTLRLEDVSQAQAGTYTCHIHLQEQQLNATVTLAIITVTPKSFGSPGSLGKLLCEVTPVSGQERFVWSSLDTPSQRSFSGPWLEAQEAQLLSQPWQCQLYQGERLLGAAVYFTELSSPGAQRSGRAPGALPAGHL
Put plainly: indirect ELISA, coated human LAG3-mFc. As to the method:
as §1, with “Then the ELISA plate coated with the antigen was washed once with PBST and then blocked with a PBS solution containing 1% BSA as a blocking solution at 37° C. for 2 h. After blocking, the ELISA plate was washed 3 times with PBST. The ELISA plate containing the test antibodies was incubated at 37° C. for 30 min and then washed 3 times with PBST. […] After” for “After”

T1 sequence (Q15116 25-288): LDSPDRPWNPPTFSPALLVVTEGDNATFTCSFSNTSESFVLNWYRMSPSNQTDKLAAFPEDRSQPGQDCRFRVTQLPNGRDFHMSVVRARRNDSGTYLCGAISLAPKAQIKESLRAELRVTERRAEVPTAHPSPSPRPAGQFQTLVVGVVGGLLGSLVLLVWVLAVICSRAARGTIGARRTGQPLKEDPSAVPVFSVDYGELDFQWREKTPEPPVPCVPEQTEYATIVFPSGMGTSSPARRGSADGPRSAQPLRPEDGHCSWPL
T2 sequence (Q15116 25-170 limits assumed): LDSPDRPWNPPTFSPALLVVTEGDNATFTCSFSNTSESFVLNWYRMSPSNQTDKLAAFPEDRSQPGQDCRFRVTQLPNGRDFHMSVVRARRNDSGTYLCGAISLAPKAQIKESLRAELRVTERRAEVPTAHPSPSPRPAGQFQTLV
T3 sequence (Q15116 25-170 limits assumed): as above

B1: 14C12H1L1(hG1TM) (antibody, human IgG1, kappa, V domains shown)
VH: EVQLVESGGGLVQPGGSLRLSCAASGFAFSSYDMSWVRQAPGKGLDWVATISGGGRYTYYPDSVKGRFTISRDNSKNNLYLQMNSLRAEDTALYYCANRYGEAWFAYWGQGTLVTVSS
VL: DIQMTQSPSSMSASVGDRVTFTCRASQDINTYLSWFQQKPGKSPKTLIYRANRLVSGVPSRFSGSGSGQDYTLTISSLQPEDMATYYCLQYDEFPLTFGAGTKLELKR
notes: Humanized anti-PD-1 IgG1 with L234A, L235A, G237A (EU numbering)
A word on the EC50: it is the concentration giving half of the maximal effect. Read a high EC50 as lower potency in that assay. Consider B1, for which the EC50 in assay [1] was 5.35 nM; in assay [2] it was 0.02 nM; in assay [3], 2.51 nM; in assay [4] it was 2.61 nM.

B2: BS-PL023C (bispecific antibody, human IgG1, kappa)
heavy: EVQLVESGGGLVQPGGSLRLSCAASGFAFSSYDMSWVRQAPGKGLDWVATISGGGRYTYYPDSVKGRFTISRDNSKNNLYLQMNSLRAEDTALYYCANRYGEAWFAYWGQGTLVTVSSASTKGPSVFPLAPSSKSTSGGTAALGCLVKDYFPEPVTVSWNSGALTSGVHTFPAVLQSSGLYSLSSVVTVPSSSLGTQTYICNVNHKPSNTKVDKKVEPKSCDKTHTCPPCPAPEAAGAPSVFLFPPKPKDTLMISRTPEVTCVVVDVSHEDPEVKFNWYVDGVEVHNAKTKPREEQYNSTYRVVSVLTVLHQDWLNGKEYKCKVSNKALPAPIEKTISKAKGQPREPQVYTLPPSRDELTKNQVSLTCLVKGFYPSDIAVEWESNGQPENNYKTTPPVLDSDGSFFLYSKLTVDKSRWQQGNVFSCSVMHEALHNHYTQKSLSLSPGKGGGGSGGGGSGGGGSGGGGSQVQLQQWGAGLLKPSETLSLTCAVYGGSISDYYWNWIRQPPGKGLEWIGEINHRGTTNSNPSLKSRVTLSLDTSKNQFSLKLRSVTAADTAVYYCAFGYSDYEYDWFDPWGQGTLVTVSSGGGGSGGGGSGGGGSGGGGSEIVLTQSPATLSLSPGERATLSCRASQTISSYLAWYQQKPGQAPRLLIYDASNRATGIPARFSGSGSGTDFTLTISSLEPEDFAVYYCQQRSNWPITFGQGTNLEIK
light: DIQMTQSPSSMSASVGDRVTFTCRASQDINTYLSWFQQKPGKSPKTLIYRANRLVSGVPSRFSGSGSGQDYTLTISSLQPEDMATYYCLQYDEFPLTFGAGTKLELKRTVAAPSVFIFPPSDEQLKSGTASVVCLLNNFYPREAKVQWKVDNALQSGNSQESVTEQDSKDSTYSLSSTLTLSKADYEKHKVYACEVTHQGLSSPVTKSFNRGEC
notes: Morrison form (IgG-scFv): an scFv at the C-terminus of each of the two heavy chains
Take B2: the EC50 in assay [2] was found to be 0.046 nM; in assay [5], 0.377 nM; in assay [4] it was 2.98 nM.

B3: Bs-PLV02 (bispecific antibody, human IgG4 S228P, kappa, F234A L235A)
heavy: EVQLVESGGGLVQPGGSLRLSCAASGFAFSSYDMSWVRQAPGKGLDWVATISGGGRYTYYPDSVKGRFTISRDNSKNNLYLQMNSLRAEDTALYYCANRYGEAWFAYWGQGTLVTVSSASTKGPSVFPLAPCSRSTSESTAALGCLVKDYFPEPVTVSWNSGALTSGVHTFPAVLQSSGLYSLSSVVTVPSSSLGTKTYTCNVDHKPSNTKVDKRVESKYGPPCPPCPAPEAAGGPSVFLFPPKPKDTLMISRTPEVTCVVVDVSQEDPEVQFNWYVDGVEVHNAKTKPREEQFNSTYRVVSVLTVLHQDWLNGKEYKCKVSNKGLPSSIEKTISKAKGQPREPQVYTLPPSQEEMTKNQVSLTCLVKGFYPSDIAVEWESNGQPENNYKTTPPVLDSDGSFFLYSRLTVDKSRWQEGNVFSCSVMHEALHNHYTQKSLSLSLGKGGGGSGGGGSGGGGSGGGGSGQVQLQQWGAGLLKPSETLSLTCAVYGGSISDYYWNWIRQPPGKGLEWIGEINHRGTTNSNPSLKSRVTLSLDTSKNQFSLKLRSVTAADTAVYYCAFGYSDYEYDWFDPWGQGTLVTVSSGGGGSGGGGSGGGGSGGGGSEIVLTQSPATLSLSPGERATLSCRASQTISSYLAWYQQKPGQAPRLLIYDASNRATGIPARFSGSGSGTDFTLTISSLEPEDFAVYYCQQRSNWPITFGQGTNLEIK
light: B2 light
notes: as for B2
As for B3, the concentration giving a half-maximal response (EC50) in assay [1] turned out to be 6.87 nM; in assay [2], 0.103 nM; in assay [5] it was 0.685 nM; in assay [4], 5.04 nM.
